Substrate in series [1]: OC[C@H]1O[C@H](Oc2ccccc2O)[C@H](O)[C@@H](O)[C@@H]1O
Briefly: initial rates by TLC densitometry; Michaelis-Menten fit. The series is classed as biochemical, Limosilactobacillus reuteri. The conditions noted are these: acceptor substrate, 1000 mM sucrose as donor, pH 4.7, 37 °C. The source says: initial rates by TLC densitometry; Michaelis-Menten fit on Gtf180-ΔN

Substrate in series [2]: Oc1ccccc1O
The experiment in a line: initial rates of catechol-G1 formation by TLC densitometry; Michaelis-Menten fit. The series is classed as biochemical, Limosilactobacillus reuteri. The conditions noted are these: acceptor substrate, 1000 mM sucrose as donor, pH 4.7, 37 °C. The source says:
initial rates of catechol-G1 formation by TLC densitometry; Michaelis-Menten fit on Gtf180-ΔN

Numbering of substitutions follows the chain as printed. Numbers in names are those of the source.

B1: Gtf180-ΔN (Limosilactobacillus reuteri) (protein)
chain: INGQQYYIDPTTGQPRKNFLLQNGNDWIYFDKDTGAGTNALKLQFDKGTISADEQYRRGNEAYSYDDKSIENVNGYLTADTWYRPKQILKDGTTWTDSKETDMRPILMVWWPNTVTQAYYLNYMKQYGNLLPASLPSFSTDADSAELNHYSELVQQNIEKRISETGSTDWLRTLMHEFVTKNSMWNKDSENVDYGGLQLQGGFLKYVNSDLTKYANSDWRLMNRTATNIDGKNYGGAEFLLANDIDNSNPVVQAEELNWLYYLMNFGTITGNNPEANFDGIRVDAVDNVDVDLLSIARDYFNAAYNMEQSDASANKHINILEDWGWDDPAYVNKIGNPQLTMDDRLRNAIMDTLSGAPDKNQALNKLITQSLVNRANDNTENAVIPSYNFVRAHDSNAQDQIRQAIQAATGKPYGEFNLDDEKKGMEAYINDQNSTNKKWNLYNMPSAYTILLTNKDSVPRVYYGDLYQDGGQYMEHKTRYFDTITNLLKTRVKYVAGGQTMSVDKNGILTNVRFGKGAMNATDTGTDETRTEGIGVVISNNTNLKLNDGESVVLHMGAAHKNQKYRAVILTTEDGVKNYTNDTDAPVAYTDANGDLHFTNTNLDGQQYTAVRGYANPDVTGYLAVWVPAGAADDQDARTAPSDEAHTTKTAYRSNAALDSNVIYEGFSNFIYWPTTESERTNVRIAQNADLFKSWGITTFELAPQYNSSKDGTFLDSIIDNGYAFTDRYDLGMSTPNKYGSDEDLRNALQALHKAGLQAIADWVPDQIYNLPGKEAVTVTRSDDHGTTWEVSPIKNVVYITNTIGGGEYQKKYGGEFLDTLQKEYPQLFSQVYPVTQTTIDPSVKIKEWSAKYFNGTNILHRGAGYVLRSNDGKYYNLGTSTQQFLPSQLSVQDNEGYGFVKEGNNYHYYDENKQMVKDAFIQDSVGNWYYFDKNGNMVANQSPVEISSNGASGTYLFLNNGTSFRSGLVKTDAGTYYYDGDGRMVRNQTVSDGAMTYVLDENGKLVSESFDSSATEAHPLKPGDLNGQK
notes: N-terminally truncated Gtf180 (ΔN)
In the case of B1, in series [1], the Km is on record as 88.8 ± 17.1 mM, the kcat was 863 ± 39.3 s⁻¹ and the catalytic efficiency (kcat/Km) was 10200 M⁻¹ s⁻¹.

B2: Gtf180-ΔN (Limosilactobacillus reuteri; L938F) (protein)
chain: B1 chain with L197F
notes: as for B1
On to B2, for which, in series [2], the Km was found to be 85.5 ± 4.0 mM, the kcat amounted to 1870 ± 74.7 s⁻¹ and the kcat/Km worked out at 21900 M⁻¹ s⁻¹. Further, in series [1], the Km is listed as 91.1 ± 7.3 mM, the kcat worked out at 576 ± 44 s⁻¹ and the kcat/Km stood at 6300 M⁻¹ s⁻¹.

B3: Gtf180-ΔN (Limosilactobacillus reuteri; L981A) (protein)
chain: B1 chain with L240A
notes: as for B1
Regarding B3, in series [2], the Km is 11.0 ± 1.3 mM, the kcat is 203 ± 8.1 s⁻¹ and the kcat/Km turned out to be 18700 M⁻¹ s⁻¹.

B4: Gtf180-ΔN (Limosilactobacillus reuteri; N1029M) (protein)
chain: B1 chain with N288M
notes: as for B1
With B4, in series [2], the Km was determined as 58.9 ± 6.4 mM, the kcat came to 449 ± 4.9 s⁻¹ and the kcat/Km turned out to be 7700 M⁻¹ s⁻¹.

Source of the values: PMC4980424, “Glucansucrase Gtf180-ΔN of Lactobacillus reuteri 180: enzyme and reaction engineering for improved glycosylation of non-carbohydrate molecules” (Applied Microbiology and Biotechnology, 2016).
